Experiment in all cases: HRP-coupled steady-state kinetics
Common to all, as to type: biochemical, Phanerodontia chrysosporium
Holding throughout (details): apparent, 50 mM potassium phosphate pH 7.5, O2 as co-substrate

Substrate in data set [1]: CC(O)CCCO
Substrate in data set [2]: OCCCCCO
Substrate in data set [3]: CCCCCC=O
Substrate in data set [4]: CC1CCC(O)O1
Substrate in data set [5]: OCCOCCO
Substrate in data set [6]: OCCCCCCO
Substrate in data set [7]: CCCCCCO

B1: alcohol oxidase from Phanerochaete chrysosporium (PcAOX; F101S-PcAOX = AOX*) (Phanerodontia chrysosporium; F101S) (protein)
chain: MGHPEEVDVIVCGGGPAGCVVAGRLAYADPTLKVMLIEGGANNRDDPWVYRPGIYVRNMQRNGINDKATFYTDTMASSYLRGRRSIVPCANILGGGSSINSQMYTRASASDWDDFKTEGWTCKDLLPLMKRLENYQKPCNNDTHGYDGPIAISNGGQIMPVAQDFLRAAHAIGVPYSDDIQDLTTAHGAEIWAKYINRHTGRRSDAATAYVHSVMDVQDNLFLRCNARVSRVLFDDNNKAVGVAYVPSRNRTHGGKLHETIVKARKMVVLSSGTLGTPQILERSGVGNGELLRQLGIKIVSDLPGVGEQYQDHYTTLSIYRVSNESITTDDFLRGVKDVQRELFTEWEVSPEKARLSSNAIDAGFKIRPTEEELKEMGPEFNELWNRYFKDKPDKPVMFGSIVAGAYADHTLLPPGKYITMFQYLEYPASRGKIHIKSQNPYVEPFFDSGFMNNKADFAPIRWSYKKTREVARRMDAFRGELTSHHPRFHPASPAACKDIDIETAKQIYPDGLTVGIHMGSWHQPSEPYKHDKVIEDIPYTEEDDKAIDDWVADHVETTWHSLGTCAMKPREQGGVVDKRLNVYGTQNLKCVDLSICPDNLGTNTYSSALLVGEKGADLIAEELGLKIKTPHAPVPHAPVPTGRPATQQVR
With B1, the Km – broadly, the concentration of substrate that gives half-maximal velocity – in data set [1] was 52.6 mM; in data set [2], 69.6 mM; in data set [3] it was 0.20 mM; in data set [4], 95.5 mM; in data set [5], 12.3 mM; in data set [6], 12.9 mM. Besides, the Km in data set [7] is on record as 3.0 mM. For the same protein, the turnover number (kcat) (commonly the number of substrate molecules converted per active site and unit of time at saturation) stood at 1.28 s⁻¹ in data set [1]; 3.48 s⁻¹ in data set [2]; 0.15 s⁻¹ in data set [3]; 1.13 s⁻¹ in data set [4]; 0.73 s⁻¹ in data set [5]; 4.07 s⁻¹ in data set [6]. Further, in data set [7], the kcat is 0.56 s⁻¹. In addition, the kcat/Km in data set [1] turned out to be 24.3 M ^-1 s^-1; in data set [2] it was 50.0 M ^-1 s^-1; in data set [3], 750 M ^-1 s^-1; in data set [4], 11.8 M ^-1 s^-1; in data set [5], 59.3 M ^-1 s^-1; in data set [6] it was 316 M ^-1 s^-1. Moreover, the kcat/Km in data set [7] turned out to be 187 M ^-1 s^-1.

Source of the values: PMC7079103.
